Data on ten molecules can be found in patent publication US20210155689A1 (SHANGHAI PHARMAEXPLORER, published 2021).

Experiment [1] addresses T1, monkey LAG-3 (full length, on the cell surface) (monkey, UniProt P18627 24-525 (human entry)).
T1 construct: also called HEK293-cLAG-3; monkey LAG-3 protein on the cell surface
T1 chain: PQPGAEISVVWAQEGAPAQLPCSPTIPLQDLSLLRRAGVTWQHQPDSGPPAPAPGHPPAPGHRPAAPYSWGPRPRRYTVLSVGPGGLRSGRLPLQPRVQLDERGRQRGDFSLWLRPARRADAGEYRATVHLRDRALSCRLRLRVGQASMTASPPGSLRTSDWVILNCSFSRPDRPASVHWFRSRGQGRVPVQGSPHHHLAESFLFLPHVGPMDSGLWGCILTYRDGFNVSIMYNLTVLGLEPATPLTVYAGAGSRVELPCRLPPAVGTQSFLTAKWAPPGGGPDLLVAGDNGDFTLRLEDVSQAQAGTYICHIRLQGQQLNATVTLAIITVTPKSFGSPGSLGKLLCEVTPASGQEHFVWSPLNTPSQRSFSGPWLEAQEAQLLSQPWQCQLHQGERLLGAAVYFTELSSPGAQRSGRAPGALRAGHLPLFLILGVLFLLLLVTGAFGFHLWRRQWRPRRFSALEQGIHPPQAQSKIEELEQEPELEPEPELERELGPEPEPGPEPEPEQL
Nature of the experiment: FACS, HEK293-cLAG-3; 0.064 nM. The source says: (§1) The pIRES plasmid with the monkey-derived full-length gene was transfected into the HEK293 cell line to construct a HEK293 stable cell line containing monkey LAG-3 (herein referred to as HEK293-cLAG-3 stable cell line). The HEK293-hLAG-3 stable cell line and HEK293-cLAG-3 stable cell line were expanded in a T-75 cell culture flask to a 90% confluence. The medium was aspirated, and the cells were washed with HBSS (Hanks' Balanced Salt Solution) 1-2 times, then treated with a enzyme-free cell dissociation fluid (Versene solution: Life technology) and the cells were collected. The cells were washed with HBSS buffer for 1-2 times. After counted, the cells were diluted with HBSS to 1-2×10⁶ cells per ml, added with 1% goat serum blocking solution, incubated on ice for 20-30 minutes, and then washed with HBSS for 2 times by centrifugation. The collected cells were suspended in the FACS buffer (HBSS+1% BSA) to 2×10⁶ cells/ml, added as 100 microliters per well to a 96-well FACS reaction plate, added with 100 microliters per well of the antibody sample to be tested, incubated on ice for 1-2 hours. The plate was washed twice with the FACS buffer by centrifugation, added with 100 microliters of fluorescent (Alexa 488)-labeled secondary antibodies per well, and incubated on ice for 0.5-1.0 hours. The plate was washed 2-3 times with FACS buffer by centrifugation, added with 100 μl fixative solution (4% Paraformaldehyde) per well to suspend the cells. 5-10 minutes later, it was washed 1-2 times with FACS buffer by centrifugation. The cells were suspended with 100 microliters of FACS buffer, FACS (FACSCalibur, BD) was used for detection and the results were analyzed.

Experiment [2] concerns the target T2, LAG-3-hFc protein (human LAG-3 extracellular region with hFc tag) (human, UniProt P18627 23-450).
T2 construct: also called hLAG-3-hFc; LAG-3 protein; not shown: human IgG Fc fragment (hFc) of the pCpC vector
T2 sequence: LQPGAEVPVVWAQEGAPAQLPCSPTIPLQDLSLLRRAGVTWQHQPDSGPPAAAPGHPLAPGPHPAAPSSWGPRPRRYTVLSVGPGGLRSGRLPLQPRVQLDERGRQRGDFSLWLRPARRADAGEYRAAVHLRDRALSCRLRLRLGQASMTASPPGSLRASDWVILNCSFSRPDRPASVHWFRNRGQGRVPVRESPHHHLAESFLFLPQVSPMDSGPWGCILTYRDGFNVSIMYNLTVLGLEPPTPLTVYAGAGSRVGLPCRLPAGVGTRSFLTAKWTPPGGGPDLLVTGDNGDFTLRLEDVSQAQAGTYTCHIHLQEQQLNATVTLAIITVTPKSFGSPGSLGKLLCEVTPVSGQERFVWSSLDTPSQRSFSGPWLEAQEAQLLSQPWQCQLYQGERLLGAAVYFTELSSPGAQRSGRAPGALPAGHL
Nature of the experiment: FACS, inhibition of LAG-3-hFc binding to MHC II on Raji cells, antibody 0.000 nM. Here is the method:
The FACS reaction plate incubating the Raji cells was centrifuged to discard the supernatant. The above mixture was added as 100 μl per well to Raji cells and incubated on ice for 1-2 hours. The plate was washed twice with blocking solution (PBS, 2% fetal bovine serum) by centrifugation, added with 100 microliters of fluorescent (Alexa 488)-labeled secondary antibodies per well, and incubated on ice for 1.0 hours. The plate was washed 2-3 times by centrifugation with blocking solution (PBS, 2% fetal bovine serum), added with 100 microliters of PBS per well to suspend cells, and detected using FACS (FACS Calibur, BD) and the results were analyzed. Wherein, the IgG control was murine IgG, and the data in the table is the inhibition rate (%).

For experiment [3], the target named is T3, monkey LAG-3 on cells (HEK293-cLAG-3 stable cell line) (monkey, UniProt P18627 24-525 (human entry)).
T3 construct: Full-length monkey (Chinese monkey) LAG-3 gene expressed on HEK293 cells
T3 chain: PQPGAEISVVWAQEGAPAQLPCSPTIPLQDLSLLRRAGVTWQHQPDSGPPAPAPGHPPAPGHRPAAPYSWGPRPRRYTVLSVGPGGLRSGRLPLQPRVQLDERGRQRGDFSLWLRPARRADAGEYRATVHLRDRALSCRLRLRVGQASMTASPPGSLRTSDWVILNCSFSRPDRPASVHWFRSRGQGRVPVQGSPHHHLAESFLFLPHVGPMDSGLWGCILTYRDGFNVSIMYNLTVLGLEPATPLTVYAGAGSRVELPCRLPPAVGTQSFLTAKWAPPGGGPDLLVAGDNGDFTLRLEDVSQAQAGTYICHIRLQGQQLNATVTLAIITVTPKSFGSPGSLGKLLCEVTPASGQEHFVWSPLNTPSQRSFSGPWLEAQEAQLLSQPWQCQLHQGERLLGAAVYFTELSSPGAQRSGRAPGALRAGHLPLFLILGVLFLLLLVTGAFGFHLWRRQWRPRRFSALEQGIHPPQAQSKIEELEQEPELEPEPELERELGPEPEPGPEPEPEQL
In words: FACS, HEK293-cLAG-3, antibody 8.000 nM.
Description: as §1

The target in experiment [4] is T4, human LAG-3 on cells (HEK293-hLAG-3 stable cell line) (human, UniProt P18627 23-525).
T4 sequence: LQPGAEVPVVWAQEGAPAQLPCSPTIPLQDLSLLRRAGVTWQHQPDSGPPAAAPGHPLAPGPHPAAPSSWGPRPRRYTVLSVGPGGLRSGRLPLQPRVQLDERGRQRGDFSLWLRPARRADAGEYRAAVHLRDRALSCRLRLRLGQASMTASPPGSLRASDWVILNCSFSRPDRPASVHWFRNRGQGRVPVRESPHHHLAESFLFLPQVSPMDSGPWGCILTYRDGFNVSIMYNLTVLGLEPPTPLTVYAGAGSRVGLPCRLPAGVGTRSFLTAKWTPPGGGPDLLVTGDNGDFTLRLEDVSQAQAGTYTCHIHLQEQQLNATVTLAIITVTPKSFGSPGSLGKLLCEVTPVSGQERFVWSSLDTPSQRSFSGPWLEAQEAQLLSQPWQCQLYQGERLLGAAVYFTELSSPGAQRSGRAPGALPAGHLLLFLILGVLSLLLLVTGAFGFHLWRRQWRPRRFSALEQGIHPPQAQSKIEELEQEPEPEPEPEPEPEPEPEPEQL
In words: FACS, HEK293-hLAG-3, antibody 0.013 nM.
Description: as §1
For orientation: In flow cytometry, cells or beads pass a laser one at a time.

B1: 405B8H3 (mouse antibody purified from hybridoma) (antibody, V domains shown)
VH: QVQLQQSGAELVRPGASVTLSCKASGYTFTDYEMHWVKQTPVHGLEWIGATDPETGNSAYNQKFKGKAIMTADKSSSTAYMELRSLTSEDSAVYYCISTGWNDWGQGTSLTVSS
VL: DIKMTQSPSSMYASLGERVTITCKASQDINSYLSWFQQKPGKSPKTLIYRADRLLDGVPSRFSGSGSGQDYSLTISSLEYGDMGIYYCLQYDEFPYTFGGGTKLEIK
notes: also called mAb103-405B8H3; 405B81-13
In experiment [1], B1 showed a Mean fluorescence intensity of 4.9 MFI.

B2: 105F1E10 mouse-human chimeric antibody (antibody, V domains shown)
VH: EVQLQQSGPELVKPGASVKMSCRASGYTFTDFKMHWMKQSHGKSLEWIGYIAPNNGGTAYNQKFRGKATLTVNESSNTAYMELRSLTSEDSAVYYCVDWDDVDYWGQGTTLTVSS
VL: DIKMTQSPSSMYASLGERVTITCKASQDINSYLSWFQQKSGKSPKTLIYRANRLVDGVPSRFSGSGSGQDYSLTISSLEYEDMGIYYCLQYVEFPLTFGAGTKLELK
notes: also called mAb009-105F1E10
Take B2: the “Inhibition rate (%)” value in experiment [2] is -32.3%. Further, the Mean fluorescence intensity in experiment [3] turned out to be 37.9; in experiment [4], 3.6.

B3: 405B8H3 mouse-human chimeric antibody (antibody, V domains shown)
VH: QVQLQQSGAELVRPGASVTLSCKASGYTFTDYEMHWVKQTPVHGLEWIGATDPETGNSAYNQKFKGKAIMTADKSSSTAYMELRSLTSEDSAVYYCISTGWNDWGQGTSLTVSS
VL: DIKMTQSPSSMYASLGERVTITCKASQDINSYLSWFQQKPGKSPKTLIYRADRLLDGVPSRFSGSGSGQDYSLTISSLEYGDMGIYYCLQYDEFPYTFGGGTKLEIK
notes: also called mAb103-405B8H3
In the case of B3, the “Inhibition rate (%)” value in experiment [2] is -15.6%. The Mean fluorescence intensity in experiment [3] is 69.3; in experiment [4], 4.

B4: 105F1E10 (mouse antibody purified from hybridoma) (antibody, V domains shown)
VH: EVQLQQSGPELVKPGASVKMSCRASGYTFTDFKMHWMKQSHGKSLEWIGYIAPNNGGTAYNQKFRGKATLTVNESSNTAYMELRSLTSEDSAVYYCVDWDDVDYWGQGTTLTVSS
VL: DIKMTQSPSSMYASLGERVTITCKASQDINSYLSWFQQKSGKSPKTLIYRANRLVDGVPSRFSGSGSGQDYSLTISSLEYEDMGIYYCLQYVEFPLTFGAGTKLELK
notes: also called mAb009-105F1E10
In experiment [1], B4 came in with a Mean fluorescence intensity of 4.5 MFI.

B5: 409B11E12 (mouse antibody purified from hybridoma) (antibody, V domains shown)
VH: QVQLQQSGAELVRPGASVTLSCKASGYTFTDYEMHWVKQTTVHGLEWIGATDPETSYSAYNQKFKGKAILTADKSSSTAYMELRSLTSEDSAVYYCIATGWNDWGQGTSLTVSS
VL: DLKMTQSPSSMYASLGERVTITCKASQDINSYLSWFQQKPGKSPKTLIYRANRLLDGVPSRFSGSGSGQDYSLTISSLEYEDMGIYYCLQYDEFPYTFGGGTKLEIK
notes: also called mAb104-409B11E12
For B5, the Mean fluorescence intensity in experiment [1] was 4.2 MFI.

B6: 409D4E10 mouse-human chimeric antibody (antibody, V domains shown)
VH: QVQLQQSGAELVRPGASVTLSCKASGNTFTDYEMHWVKQTPVHGLEWIGATDPETDNTAYNQKFKGKAILTTDKSSSTAYMELRSLTSEDSAVYYCITSGWNDWGQGTSLTVSS
VL: DIKMTQSPSSMYASLGERVTITCKASQDINSYLSWFQQKPGKSPKTLIYRANRLLDGVPSRFSGSGSGQDYSLTISSLEYEDMGIYYCLQYNEFPYTFGGGTKLEIK
notes: also called mAb112-409D4E10
Take B6: the “Inhibition rate (%)” value in experiment [2] is -1.7%. Besides, the Mean fluorescence intensity in experiment [3] was determined as 61.5; in experiment [4] it was 4.

B7: 409D4E10 (mouse antibody purified from hybridoma) (antibody, V domains shown)
VH: QVQLQQSGAELVRPGASVTLSCKASGNTFTDYEMHWVKQTPVHGLEWIGATDPETDNTAYNQKFKGKAILTTDKSSSTAYMELRSLTSEDSAVYYCITSGWNDWGQGTSLTVSS
VL: DIKMTQSPSSMYASLGERVTITCKASQDINSYLSWFQQKPGKSPKTLIYRANRLLDGVPSRFSGSGSGQDYSLTISSLEYEDMGIYYCLQYNEFPYTFGGGTKLEIK
notes: also called mAb112-409D4E10
In experiment [1], B7 came in with a Mean fluorescence intensity of 4.7 MFI.

B8: 409B11E12 mouse-human chimeric antibody (antibody, V domains shown)
VH: QVQLQQSGAELVRPGASVTLSCKASGYTFTDYEMHWVKQTTVHGLEWIGATDPETSYSAYNQKFKGKAILTADKSSSTAYMELRSLTSEDSAVYYCIATGWNDWGQGTSLTVSS
VL: DLKMTQSPSSMYASLGERVTITCKASQDINSYLSWFQQKPGKSPKTLIYRANRLLDGVPSRFSGSGSGQDYSLTISSLEYEDMGIYYCLQYDEFPYTFGGGTKLEIK
notes: also called mAb104-409B11E12
As to B8, in experiment [2], the “Inhibition rate (%)” value is -11.8%. The Mean fluorescence intensity in experiment [3] stood at 73.1; in experiment [4] it was 4.1.

B9: 556F6B8 mouse-human chimeric antibody (antibody, V domains shown)
VH: RVQLKQSGPGLVQPSQSLSITCTVSGFSLIKYGVHWVRQSPGEGLEWLGVIWRGGITDYNAAFMSRLSITKDNSKSQVFFKMNSLQADDTAIYYCAKWDGPLAMDYWGQGTSVTVSS
VL: DIVMTQSHKFLSTSVGDRVSITCKASQDVGTTVAWYQQKPGQSPKLLIYWASTRHTGVPDRFTGSGSGTDFTLTISNVQSEDLADYFCQQYSSYPYTFGGGTKLEIK
notes: also called mAb123-556F6B8; 556F8B8
Take B9: the “Inhibition rate (%)” value in experiment [2] turned out to be 12.9%. Also, the values for the Mean fluorescence intensity in experiment [3] and in experiment [4] were 42.5 and 4.2, respectively.

B10: 556F6B8 (mouse antibody purified from hybridoma) (antibody, V domains shown)
VH: RVQLKQSGPGLVQPSQSLSITCTVSGFSLIKYGVHWVRQSPGEGLEWLGVIWRGGITDYNAAFMSRLSITKDNSKSQVFFKMNSLQADDTAIYYCAKWDGPLAMDYWGQGTSVTVSS
VL: DIVMTQSHKFLSTSVGDRVSITCKASQDVGTTVAWYQQKPGQSPKLLIYWASTRHTGVPDRFTGSGSGTDFTLTISNVQSEDLADYFCQQYSSYPYTFGGGTKLEIK
notes: also called mAb123-556F6B8
For the molecule B10, the Mean fluorescence intensity in experiment [1] worked out at 5.1 MFI.
